We go through one molecule from patent US20230227508A1 (MIT, published 2023).

Experiment [1] has as its target T1, σN-NpuN-Mdm2* bait fusion (residues 17-124 of Mdm2) (UniProt Q00987 17-124). Description: cell-based or functional assay.
For experiment [2], the target named is T1, σN-NpuN-Mdm2* bait fusion (residues …). Description: split intein σ factor circuit in E. coli, sfGFP read by flow cytometry. (In general: Flow cytometry measures light scatter and fluorescence of single cells or particles in a stream.)

T1 sequence (Q00987 other isoform, or with tags, fused parts or gaps limits assumed): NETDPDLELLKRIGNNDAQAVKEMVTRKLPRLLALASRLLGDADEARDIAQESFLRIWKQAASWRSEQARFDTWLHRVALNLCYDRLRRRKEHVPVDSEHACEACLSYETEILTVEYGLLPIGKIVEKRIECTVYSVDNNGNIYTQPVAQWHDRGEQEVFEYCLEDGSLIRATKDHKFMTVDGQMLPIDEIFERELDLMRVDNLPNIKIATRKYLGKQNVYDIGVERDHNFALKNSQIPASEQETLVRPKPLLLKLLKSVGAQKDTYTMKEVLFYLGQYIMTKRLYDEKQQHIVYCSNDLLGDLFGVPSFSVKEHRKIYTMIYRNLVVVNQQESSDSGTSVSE

B1: ACE2*-NpuC-σC peptide fusion (N-terminal residues 19-56 of ACE2) (other, not shown: small tags and cut ends)
chain: STIEEQAKTFLDKFNHEAEDLFYQSSLASWNYNTNITERGGKGGPGGRGGVGGGGGIGGGFIASNCWLDTRPAPDEQLEASAQSRRMAQALDQLPDRQREAIVLQYYQELSNTEAAALMQISVEALESLLSRARRNLRSHLAEAPGADLSGRRKP
notes: also called ACE2a1; pAMK-857
Turning to B1, the “drop of the fluorescent output of the circuit relative to the PMI/Mdm2* pair” value in experiment [1] is 15 fold. In experiment [2], the binding result is given as “no binding”.
